Reference: patent publication US20140193434A1 (TORAY INDUSTRIES, published 2014)

T1: human CAPRIN-1 protein on the cell membrane surface of human cancer cell lines (human, UniProt Q14444 2-709)
T1 sequence (looked up): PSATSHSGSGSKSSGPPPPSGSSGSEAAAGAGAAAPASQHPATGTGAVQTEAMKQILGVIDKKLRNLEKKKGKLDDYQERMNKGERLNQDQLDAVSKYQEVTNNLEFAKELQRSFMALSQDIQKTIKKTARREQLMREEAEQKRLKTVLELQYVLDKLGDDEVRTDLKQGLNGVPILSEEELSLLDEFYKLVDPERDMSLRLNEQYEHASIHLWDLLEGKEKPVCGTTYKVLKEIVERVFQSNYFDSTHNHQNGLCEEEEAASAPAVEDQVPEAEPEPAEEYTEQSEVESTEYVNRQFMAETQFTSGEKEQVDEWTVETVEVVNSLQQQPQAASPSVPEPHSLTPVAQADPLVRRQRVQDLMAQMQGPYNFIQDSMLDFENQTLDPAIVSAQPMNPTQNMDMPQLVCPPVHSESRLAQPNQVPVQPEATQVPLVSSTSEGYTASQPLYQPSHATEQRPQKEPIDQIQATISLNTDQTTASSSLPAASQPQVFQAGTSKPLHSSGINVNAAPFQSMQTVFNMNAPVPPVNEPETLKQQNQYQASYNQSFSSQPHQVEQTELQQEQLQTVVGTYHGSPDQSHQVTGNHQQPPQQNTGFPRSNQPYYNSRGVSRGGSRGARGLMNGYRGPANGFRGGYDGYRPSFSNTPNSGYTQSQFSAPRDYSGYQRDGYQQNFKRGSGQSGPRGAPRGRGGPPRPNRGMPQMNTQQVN

B1: human-mouse chimeric comparative monoclonal antibody 4 (antibody, human IgG1, kappa, V domains shown)
VH: EVQLHQFGAELVKPGASVKISCKASGYTFTDYNMDWVKQSHGKSLEWIGDINPNYDSTSYNQKFKGKATLTVDKSSSTAYMELRSLTSEDTAVYYCARSRSYDYEGFAYWGQGTLVTVSA
VL: SGDRVSLSCRASQSISNYLHWYQQKSHESPRLLIKYASQSISGIPSRFSGSGSGTDFTLSINSVETEDFGMYFCQQSNSWPYTFGAGTKLEIKQ
B2: human-mouse chimeric comparative monoclonal antibody 3 (antibody, human IgG1, kappa)
heavy: not shown
light: RTTSHMDSDIQLTQSPASLSASVGETVTITCRASGNIHNYLAWYQQKQGKSPQLLVYNAKTLADGVPSRFSGSGSGTQYSLKINSLQPEDFGSYYCQHFWSTLTFGGGTKLEIKQSDTVAAPSVFIFPPSDEQLKSGTASVVCLLNNFYPREAKVQWKVDNALQSGNSQESVTEQDSKDSTYSLSSTLTLSKADYEKHKVYACEVTHQGLSSPVTKSFNRGEC
B3: human-mouse chimeric comparative monoclonal antibody 7 (antibody, human IgG1, kappa, V domains shown)
VH: LQESGAELARPGASVKLSCKASGYTFTSYWMQWVKQRPGQGLEWIGAIYPGDGDTRYTQKFKGKATLTADKSSSTAYMQLSSLASEDSAVYYCARGEYGNYFAYWGQGTTVTVSS
VL: TSDASLGERVTITCKASQDINSYLSWFQQKPGKSPKTLIYRANRLVDGVPSRFSGSGSGQDYSLTISSLEYEDMGIYYCLQYDEFPLTFGGGTKLEIKQ
B4: human-mouse chimeric comparative monoclonal antibody 1 (antibody)
heavy: not shown
light: DIQMTQSPASLSASVGETVTITCRASGNIHNYLAWYQQKQGKSPQLLVYNAKTLADGVPSRFSGSGSGTQYSLKINSLQPEDFGSYYCQHFWSTLTFGAGTKLELKRTVAAPSVFIFPPSDEQLKSGTASVVCLLNNFYPREAKVQWKVDNALQSGNSQESVTEQDSKDSTYSLSSTLTLSKADYEKHKVYACEVTHQGLSSPVTKSFNRGEC

target: T1, human CAPRIN-1 protein on the cell …; experiment: cell-based or functional assay

| Binder | cytotoxic activity (ADCC, chromium 51 release) against MCF7, HCT-116, MIAPaCa-2, Caki-2 and QG56 [%] |
| --- | --- |
| B1 | < 5 |
| B2 | < 5 |
| B3 | < 5 |
| B4 | < 5 |
